For this series, the system named is CCCCCCCCCCCC(=O)Oc1ccc([N+](=O)[O-])cc1. Nature of the series: purified protein. As to conditions: pH 7.4, 60 °C, substrate 10-30 mM.

The Km is the substrate concentration at which the rate is half of its maximum. By kcat is commonly meant the maximal rate divided by the concentration of active sites.

Turning to “EstB (6xHis carboxyl-esterase B) (Geobacillus thermoleovorans)”, the Km is given as 22.756 mM and the kcat was 0.993 s⁻¹.
